Experimental data as given in publication PMC3945115 (Free radical biology & medicine, 2013).
Where a chain is given by its changes, count along the chain named. Names may count otherwise.

B1: S167D-catalase (phospho-mimic mutant of human catalase) (enzyme, UniProt P04040 1-527, looked up)
chain: MADSRDPASDQMQHWKEQRAAQKADVLTTGAGNPVGDKLNVITVGPRGPLLVQDVVFTDEMAHFDRERIPERVVHAKGAGAFGYFEVTHDITKYSKAKVFEHIGKKTPIAVRFSTVAGESGSADTVRDPRGFAVKFYTEDGNWDLVGNNTPIFFIRDPILFPSFIHDQKRNPQTHLKDPDMVWDFWSLRPESLHQVSFLFSDRGIPDGHRHMNGYGSHTFKLVNANGEAVYCKFHYKTDQGIKNLSVEDAARLSQEDPDYGIRDLFNAIATGKYPSWTFYIQVMTFNQAETFPFNPFDLTKVWPHKDYPLIPVGKLVLNRNPVNYFAEVEQIAFDPSNMPPGIEASPDKMLQGRLFAYPDTHRHRLGPNYLHIPVNCPYRARVANYQRDGPMCMQDNQGGAPNYYPNSFGAPEQQPSALEHSIQYSGEVRRFNTANDDNVTQVRAFYVNVLNEEQRKRLCENIAGHLKDAQIFIQKKAVKNFTEVHPDYGSHIQALLDKYNAEKPKNAIHTFVQSGSHLAAREKANL
B2: recombinant human wildtype catalase incubated with PKCδ (phosphorylated at S167) (enzyme, UniProt P04040 1-527, looked up)
chain: B1 chain with D167S
modifications: phosphoserine at 167
B3: recombinant human wildtype catalase (enzyme, UniProt P04040 1-527, looked up)
chain: B1 chain with D167S

Legend:
[1] = target: the molecule itself; assay: cell-based or functional assay
SEC [2] = target: the molecule itself; assay: SEC
SEC [3] = target: the molecule itself; assay: SEC; remark: listed apart in the source

Row | Protein | rate of H2O2 decomposition by the purified protein, against wildtype catalase [1] [fold] | stoichiometry N (SEC [2]) | Dimer (%) (SEC [3]) | Tetramer (%) (SEC [3])
1 | B1 | 2 | 4 | 9.2 | 44.4
2 | B2 |  | 4 | 6.23 | 51.8
3 | B3 |  | 2 | 53 | 4.78
